# Measured values published in patent US20240366728A1 (CARMOT THERAPEUTICS, published 2024).
# T1: human GIPR (human, UniProt P48546 22-466)
# T1 sequence (looked up): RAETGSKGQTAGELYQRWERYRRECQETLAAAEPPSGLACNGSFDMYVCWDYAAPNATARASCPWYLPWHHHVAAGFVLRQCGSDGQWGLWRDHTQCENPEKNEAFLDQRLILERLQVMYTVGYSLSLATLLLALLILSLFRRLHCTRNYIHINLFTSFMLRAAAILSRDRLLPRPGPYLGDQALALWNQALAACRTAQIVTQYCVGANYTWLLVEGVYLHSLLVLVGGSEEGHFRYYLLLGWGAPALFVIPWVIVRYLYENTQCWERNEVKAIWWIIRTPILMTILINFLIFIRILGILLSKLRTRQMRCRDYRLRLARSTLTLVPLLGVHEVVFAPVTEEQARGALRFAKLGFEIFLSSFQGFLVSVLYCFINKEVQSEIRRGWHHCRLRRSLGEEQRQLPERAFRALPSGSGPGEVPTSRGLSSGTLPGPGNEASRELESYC
# T2: mouse GLP-1R (mouse, UniProt O35659 22-463)
# T2 sequence (looked up): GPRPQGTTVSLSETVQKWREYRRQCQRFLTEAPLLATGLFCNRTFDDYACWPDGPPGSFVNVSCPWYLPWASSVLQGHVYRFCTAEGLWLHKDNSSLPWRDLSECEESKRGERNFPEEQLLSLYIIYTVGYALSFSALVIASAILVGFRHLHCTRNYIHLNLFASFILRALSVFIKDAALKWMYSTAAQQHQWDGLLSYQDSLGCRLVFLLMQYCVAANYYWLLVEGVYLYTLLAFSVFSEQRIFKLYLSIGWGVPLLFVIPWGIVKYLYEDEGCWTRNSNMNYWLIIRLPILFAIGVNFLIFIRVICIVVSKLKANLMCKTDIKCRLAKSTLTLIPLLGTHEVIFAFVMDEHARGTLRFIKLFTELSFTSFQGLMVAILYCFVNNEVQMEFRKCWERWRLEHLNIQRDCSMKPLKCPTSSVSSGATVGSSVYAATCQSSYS
# T3: mouse GIPR (mouse, UniProt Q0P543 19-460)
# T3 sequence (looked up): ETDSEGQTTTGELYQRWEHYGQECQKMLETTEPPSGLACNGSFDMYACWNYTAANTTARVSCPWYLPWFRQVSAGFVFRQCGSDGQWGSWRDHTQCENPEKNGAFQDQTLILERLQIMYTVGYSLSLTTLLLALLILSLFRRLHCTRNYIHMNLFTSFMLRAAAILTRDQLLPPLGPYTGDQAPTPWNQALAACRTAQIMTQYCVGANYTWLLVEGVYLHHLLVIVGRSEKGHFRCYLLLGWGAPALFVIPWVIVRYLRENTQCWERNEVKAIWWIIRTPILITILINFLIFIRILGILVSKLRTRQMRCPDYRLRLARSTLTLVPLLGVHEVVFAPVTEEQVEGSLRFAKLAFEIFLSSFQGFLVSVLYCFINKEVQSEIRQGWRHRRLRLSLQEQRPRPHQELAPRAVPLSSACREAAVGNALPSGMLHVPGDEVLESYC
# B1: CT-868 (peptide)
# peptide: EGTFTSDYSIYLDKQAAXEFVNWLLAGGPSSGAPPPSK
# modifications: N-terminal 2-(2-Piperidon-1-yl)-ethylcarbamoylmethylthio-acetyl on Glu; Aib (18th residue of the printed chain); C-terminal Lys(γ-Glu-palmitoyl)-NH2; hydrochloride salt
# Key:
# Assay in all cases: cell-based or functional assay
# human GIPR [1] = target: T1, human GIPR
# human GLP-1R [2] = target: T4, human GLP-1R (human, UniProt P43220 24-463)
# human GIPR [3] = target: T1, human GIPR; remark: listed apart in the source
# mouse GLP-1R = target: T2, mouse GLP-1R
# mouse GIPR = target: T3, mouse GIPR
# human GLP-1R [4] = target: T4, human GLP-1R; remark: listed apart in the source
binder,measurement,setting,value
B1,fold less potent than GIP (cAMP accumulation),human GIPR [1],16 fold
same,ratio GLP-1R over GIPR (cAMP potency),human GIPR [1],~19.4
same,fold less potent than GLP-1 (cAMP accumulation),human GLP-1R [2],6 fold
same,hGIPR Internalization EC50,human GIPR [3],14 nM
same,hGIPR cAMP (-alb) EC50,human GIPR [3],1.9 nM
same,hGIPR β-arrestin-2 EC50,human GIPR [3],13 nM
same,hGIPR/hGLP-1R cAMP ratio,human GIPR [3],12
same,mGLP-1R cAMP (-alb) EC50,mouse GLP-1R,0.164 nM
same,mGLP-1R β-arrestin-2 EC50,mouse GLP-1R,21.1 nM
same,mGIPR cAMP (-alb) EC50,mouse GIPR,1.03 nM
same,mGIPR β-arrestin-2 EC50,mouse GIPR,6.21 nM
same,mGIPR/mGLP-1R cAMP ratio,mouse GIPR,6
same,hGLP-1R Internalization EC50,human GLP-1R [4],3.1 nM
same,hGLP-1R cAMP (-alb) EC50,human GLP-1R [4],0.156 nM
same,hGLP-1R β-arrestin-2 EC50,human GLP-1R [4],11 nM
